Laboratory results taken from the supplement of paper PMC10065799, “High-throughput profiling of sequence recognition by tyrosine kinases and SH2 domains using bacterial peptide display” (eLife, 2023).

Tests used:
[1] = system: AncSZ; assay: phosphorylation enrichment, bacterial display (enrichment ratio); higher = better substrate or ligand; peptides without Tyr show the background
[2] = molecular target: EPHB1 (UniProt P54762); assay: as above
[3] = molecular target: EPHB2 (UniProt P29323); assay: as above
[4] = molecular target: FGFR1 (UniProt P11362); assay: as above
[5] = molecular target: FGFR3 (UniProt P22607); assay: as above
[6] = system: Fer (mouse); assay: as above
[7] = molecular target: Fes (UniProt P07332); assay: as above
[8] = molecular target: Fyn (UniProt P06241); assay: as above
[9] = molecular target: Hck (UniProt P08631); assay: as above
[10] = molecular target: Jak2 (UniProt O60674); assay: as above
[11] = molecular target: MERTK (UniProt Q12866); assay: as above
[12] = system: c-Abl (mouse); assay: as above
[13] = system: c-Src; assay: as above
[14] = molecular target: Grb2 SH2 (UniProt P62993); assay: SH2 binding enrichment of the phosphorylated peptide, bacterial display (enrichment ratio); higher = better substrate or ligand; peptides without Tyr show the background
[15] = molecular target: SHP2-C SH2; assay: as above
[16] = molecular target: c-Src SH2; assay: as above
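Wherever SH2 binding enrichment of the phosphorylated peptide, bacterial display is given: peptide library displayed on the E. coli surface as eCPX fusions, selected cells deep-sequenced, score is each peptide's frequency after selection divided by its frequency in the input.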
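Wherever phosphorylation enrichment, bacterial display is given: 11-residue human phosphosite peptides and single-mutation variants displayed on the E. coli surface, counted by deep sequencing, each peptide's frequency after selection divided by its frequency in the unselected input library; frequency after pTyr selection over input frequency; kinase dosed for 20-30% of maximal phosphorylation in three min.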

Chain of Fes (P07332 whole entry, looked up): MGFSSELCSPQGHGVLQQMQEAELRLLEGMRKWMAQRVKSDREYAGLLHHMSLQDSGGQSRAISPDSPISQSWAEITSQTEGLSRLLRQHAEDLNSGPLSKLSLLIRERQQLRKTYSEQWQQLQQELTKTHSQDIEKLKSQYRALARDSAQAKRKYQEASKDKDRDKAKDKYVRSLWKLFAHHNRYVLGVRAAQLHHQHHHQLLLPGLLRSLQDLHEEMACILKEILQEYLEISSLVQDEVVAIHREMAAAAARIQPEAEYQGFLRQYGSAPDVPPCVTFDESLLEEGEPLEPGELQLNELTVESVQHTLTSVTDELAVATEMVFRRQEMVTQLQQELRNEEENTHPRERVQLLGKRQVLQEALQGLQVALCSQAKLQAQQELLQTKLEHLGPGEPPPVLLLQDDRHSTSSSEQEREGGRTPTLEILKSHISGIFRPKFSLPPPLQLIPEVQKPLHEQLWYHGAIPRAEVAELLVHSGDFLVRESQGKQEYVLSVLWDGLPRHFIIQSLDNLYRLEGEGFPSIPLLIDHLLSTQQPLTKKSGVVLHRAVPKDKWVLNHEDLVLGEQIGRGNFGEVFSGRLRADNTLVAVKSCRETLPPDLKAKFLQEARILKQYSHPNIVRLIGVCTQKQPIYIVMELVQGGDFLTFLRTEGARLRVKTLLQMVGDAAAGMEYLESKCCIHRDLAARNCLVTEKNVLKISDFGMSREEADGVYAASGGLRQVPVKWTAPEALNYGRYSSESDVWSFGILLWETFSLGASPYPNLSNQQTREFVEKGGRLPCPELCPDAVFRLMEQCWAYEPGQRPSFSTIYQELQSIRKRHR
Chain of Fyn (P06241 whole entry, looked up): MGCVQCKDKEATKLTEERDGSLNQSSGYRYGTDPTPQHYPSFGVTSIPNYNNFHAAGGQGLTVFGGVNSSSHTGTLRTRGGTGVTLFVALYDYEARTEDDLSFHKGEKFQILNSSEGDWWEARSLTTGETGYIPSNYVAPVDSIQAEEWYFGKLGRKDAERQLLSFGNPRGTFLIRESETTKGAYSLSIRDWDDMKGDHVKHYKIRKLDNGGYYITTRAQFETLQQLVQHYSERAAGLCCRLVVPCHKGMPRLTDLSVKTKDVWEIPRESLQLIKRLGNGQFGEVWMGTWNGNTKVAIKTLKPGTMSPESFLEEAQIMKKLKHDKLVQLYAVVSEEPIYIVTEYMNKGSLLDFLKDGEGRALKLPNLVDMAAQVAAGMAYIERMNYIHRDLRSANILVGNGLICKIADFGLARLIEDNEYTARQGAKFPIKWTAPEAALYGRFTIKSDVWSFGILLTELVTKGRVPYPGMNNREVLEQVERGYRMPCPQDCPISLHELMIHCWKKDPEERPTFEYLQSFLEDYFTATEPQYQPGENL
Chain of Hck (P08631 whole entry, looked up): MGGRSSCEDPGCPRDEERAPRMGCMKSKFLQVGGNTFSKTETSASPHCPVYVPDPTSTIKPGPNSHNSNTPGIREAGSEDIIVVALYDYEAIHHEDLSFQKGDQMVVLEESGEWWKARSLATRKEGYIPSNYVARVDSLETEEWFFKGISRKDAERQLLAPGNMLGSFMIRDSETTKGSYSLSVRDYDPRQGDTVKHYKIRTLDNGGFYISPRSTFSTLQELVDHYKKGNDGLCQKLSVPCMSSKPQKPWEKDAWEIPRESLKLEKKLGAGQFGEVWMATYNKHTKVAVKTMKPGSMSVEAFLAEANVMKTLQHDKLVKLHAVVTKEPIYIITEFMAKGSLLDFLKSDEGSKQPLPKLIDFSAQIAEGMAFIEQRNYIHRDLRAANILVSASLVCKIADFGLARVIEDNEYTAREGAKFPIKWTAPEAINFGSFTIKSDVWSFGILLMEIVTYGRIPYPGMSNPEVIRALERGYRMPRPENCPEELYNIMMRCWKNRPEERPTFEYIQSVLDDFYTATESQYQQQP
Chain of Grb2 SH2 (P62993 whole entry, looked up): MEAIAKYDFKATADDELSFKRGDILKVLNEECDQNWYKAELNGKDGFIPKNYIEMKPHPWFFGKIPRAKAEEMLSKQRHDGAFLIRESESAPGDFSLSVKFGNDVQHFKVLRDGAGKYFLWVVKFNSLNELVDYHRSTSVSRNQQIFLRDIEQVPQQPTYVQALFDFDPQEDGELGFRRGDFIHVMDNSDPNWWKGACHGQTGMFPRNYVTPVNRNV
Chain of FGFR3 (P22607 whole entry, looked up): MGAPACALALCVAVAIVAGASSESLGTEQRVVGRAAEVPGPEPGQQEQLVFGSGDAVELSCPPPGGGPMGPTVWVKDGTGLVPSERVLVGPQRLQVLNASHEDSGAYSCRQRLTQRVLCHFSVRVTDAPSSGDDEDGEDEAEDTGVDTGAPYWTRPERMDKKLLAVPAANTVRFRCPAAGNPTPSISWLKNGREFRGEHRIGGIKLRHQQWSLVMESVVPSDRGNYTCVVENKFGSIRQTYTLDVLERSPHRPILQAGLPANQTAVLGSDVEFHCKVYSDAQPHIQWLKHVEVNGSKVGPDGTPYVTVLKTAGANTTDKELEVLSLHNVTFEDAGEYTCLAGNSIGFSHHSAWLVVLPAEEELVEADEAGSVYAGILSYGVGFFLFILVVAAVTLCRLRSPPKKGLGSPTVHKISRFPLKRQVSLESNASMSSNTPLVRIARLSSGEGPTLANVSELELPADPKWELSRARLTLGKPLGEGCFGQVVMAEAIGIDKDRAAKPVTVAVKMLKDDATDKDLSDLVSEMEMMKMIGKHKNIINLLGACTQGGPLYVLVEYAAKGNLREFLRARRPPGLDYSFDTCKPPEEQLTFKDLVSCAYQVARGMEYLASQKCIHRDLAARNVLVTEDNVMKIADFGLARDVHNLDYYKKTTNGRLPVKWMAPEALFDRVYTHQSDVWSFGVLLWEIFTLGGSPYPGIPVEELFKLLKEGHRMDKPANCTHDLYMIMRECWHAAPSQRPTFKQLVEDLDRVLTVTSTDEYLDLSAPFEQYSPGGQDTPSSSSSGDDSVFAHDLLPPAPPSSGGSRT
Chain of EPHB1 (P54762 whole entry, looked up): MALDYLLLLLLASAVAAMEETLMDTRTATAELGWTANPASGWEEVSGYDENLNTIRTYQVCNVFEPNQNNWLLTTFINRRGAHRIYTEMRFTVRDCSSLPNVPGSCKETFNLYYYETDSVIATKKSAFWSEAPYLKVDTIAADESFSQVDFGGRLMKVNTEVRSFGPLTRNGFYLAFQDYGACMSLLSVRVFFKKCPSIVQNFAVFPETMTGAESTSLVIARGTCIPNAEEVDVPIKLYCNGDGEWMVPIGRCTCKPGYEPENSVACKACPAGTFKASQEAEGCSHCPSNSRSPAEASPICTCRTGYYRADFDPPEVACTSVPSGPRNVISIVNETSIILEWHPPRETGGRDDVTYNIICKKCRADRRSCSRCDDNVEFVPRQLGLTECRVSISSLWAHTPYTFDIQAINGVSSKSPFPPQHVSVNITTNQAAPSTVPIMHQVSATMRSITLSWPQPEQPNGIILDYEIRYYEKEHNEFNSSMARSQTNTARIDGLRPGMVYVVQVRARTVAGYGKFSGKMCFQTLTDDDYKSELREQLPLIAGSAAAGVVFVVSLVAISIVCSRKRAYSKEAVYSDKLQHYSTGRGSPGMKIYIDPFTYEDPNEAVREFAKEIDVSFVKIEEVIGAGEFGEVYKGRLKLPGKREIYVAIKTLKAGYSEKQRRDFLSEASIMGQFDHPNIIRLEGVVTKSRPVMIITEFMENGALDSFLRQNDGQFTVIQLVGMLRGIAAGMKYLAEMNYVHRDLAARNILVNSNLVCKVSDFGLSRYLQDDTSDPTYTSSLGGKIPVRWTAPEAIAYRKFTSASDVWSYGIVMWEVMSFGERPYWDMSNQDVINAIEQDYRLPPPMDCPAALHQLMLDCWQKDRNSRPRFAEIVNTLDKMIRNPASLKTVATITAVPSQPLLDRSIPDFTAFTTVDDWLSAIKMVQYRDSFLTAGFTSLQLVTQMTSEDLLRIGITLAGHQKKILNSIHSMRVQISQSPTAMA
Chain of MERTK (Q12866 whole entry, looked up): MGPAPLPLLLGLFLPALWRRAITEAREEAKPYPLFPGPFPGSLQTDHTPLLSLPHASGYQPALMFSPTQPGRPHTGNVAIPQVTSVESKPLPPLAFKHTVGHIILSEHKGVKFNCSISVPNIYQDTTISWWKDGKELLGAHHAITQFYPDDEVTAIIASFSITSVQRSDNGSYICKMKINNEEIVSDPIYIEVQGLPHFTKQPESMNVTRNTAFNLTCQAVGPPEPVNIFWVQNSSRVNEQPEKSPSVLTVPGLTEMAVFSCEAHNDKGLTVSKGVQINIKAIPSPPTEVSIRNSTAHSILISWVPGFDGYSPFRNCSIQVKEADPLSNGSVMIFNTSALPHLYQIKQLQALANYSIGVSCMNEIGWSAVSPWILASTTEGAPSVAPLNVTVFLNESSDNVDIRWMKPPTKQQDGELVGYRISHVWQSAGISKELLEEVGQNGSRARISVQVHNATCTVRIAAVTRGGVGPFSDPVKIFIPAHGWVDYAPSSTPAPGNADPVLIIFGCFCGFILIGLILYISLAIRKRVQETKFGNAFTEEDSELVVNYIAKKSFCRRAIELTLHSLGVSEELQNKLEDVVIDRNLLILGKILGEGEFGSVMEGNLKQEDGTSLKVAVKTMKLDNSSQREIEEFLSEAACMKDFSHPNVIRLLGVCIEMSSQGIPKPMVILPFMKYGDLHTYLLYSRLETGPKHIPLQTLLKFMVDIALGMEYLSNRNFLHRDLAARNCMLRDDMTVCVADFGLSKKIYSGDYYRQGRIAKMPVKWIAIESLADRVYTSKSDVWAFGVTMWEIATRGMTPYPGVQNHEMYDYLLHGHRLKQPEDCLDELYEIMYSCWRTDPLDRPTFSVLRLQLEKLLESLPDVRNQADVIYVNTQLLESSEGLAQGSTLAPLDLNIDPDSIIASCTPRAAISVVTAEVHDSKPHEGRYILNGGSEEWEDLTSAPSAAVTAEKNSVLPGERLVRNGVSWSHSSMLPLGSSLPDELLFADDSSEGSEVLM

IFSGIYFKPES [L2HGDH_Y102_H98Y_YF] showed a phosphorylation enrichment [1] of 1.51, a phosphorylation enrichment [2] of 1.84 and a phosphorylation enrichment [3] of 1.35. It also gave a phosphorylation enrichment [4] of 1.3, a phosphorylation enrichment [5] of 1.4 and a phosphorylation enrichment [6] of 0.459. For the same sequence, the phosphorylation enrichment [7] was 0.78, the phosphorylation enrichment [8] was 2.7 and the phosphorylation enrichment [9] was 2.64. The phosphorylation enrichment [10] was 6.32, the phosphorylation enrichment [11] was 6 and the phosphorylation enrichment [12] was 11.2. It also gave a phosphorylation enrichment [13] of 3.26, an SH2 binding enrichment [14] of 1.05 and an SH2 binding enrichment [15] of 0.981. For the same sequence, the SH2 binding enrichment [16] was 0.77.
Work on TLDTDYQMTKR [ADA_Y308] yielded a phosphorylation enrichment [1] of 0.77, a phosphorylation enrichment [2] of 0.45 and a phosphorylation enrichment [3] of 0.504. For the same sequence, the phosphorylation enrichment [4] was 0.462, the phosphorylation enrichment [5] was 0.584 and the phosphorylation enrichment [6] was 0.697. For the same sequence, the phosphorylation enrichment [7] was 0.781, the phosphorylation enrichment [8] was 0.483 and the phosphorylation enrichment [9] was 0.445. It also gave a phosphorylation enrichment [10] of 0.632, a phosphorylation enrichment [11] of 0.363 and a phosphorylation enrichment [12] of 0.499. It also gave a phosphorylation enrichment [13] of 0.35, an SH2 binding enrichment [14] of 0.92 and an SH2 binding enrichment [15] of 0.597. It also gave an SH2 binding enrichment [16] of 0.558.
In the case of QDTSRYTVCNL [BIRC3_Y245_S248C], the phosphorylation enrichment [1] is reported as 0.745, the phosphorylation enrichment [2] is reported as 0.528 and the phosphorylation enrichment [3] is reported as 0.439. For the same sequence, the phosphorylation enrichment [4] was 0.418, the phosphorylation enrichment [5] was 0.469 and the phosphorylation enrichment [6] was 0.557. For the same sequence, the phosphorylation enrichment [7] was 0.815, the phosphorylation enrichment [8] was 0.546 and the phosphorylation enrichment [9] was 0.359. For the same sequence, the phosphorylation enrichment [10] was 0.741, the phosphorylation enrichment [11] was 0.348 and the phosphorylation enrichment [12] was 0.854. It also gave a phosphorylation enrichment [13] of 0.439, an SH2 binding enrichment [14] of 0.79 and an SH2 binding enrichment [15] of 0.78. It also gave an SH2 binding enrichment [16] of 1.29.
Work on KILGRYFETGS [PAX2_Y72_YF] yielded a phosphorylation enrichment [1] of 0.575, a phosphorylation enrichment [2] of 0.414 and a phosphorylation enrichment [3] of 0.467. For the same sequence, the phosphorylation enrichment [4] was 0.459, the phosphorylation enrichment [5] was 0.496 and the phosphorylation enrichment [6] was 0.464. The phosphorylation enrichment [7] was 0.656, the phosphorylation enrichment [8] was 0.408 and the phosphorylation enrichment [9] was 0.397. For the same sequence, the phosphorylation enrichment [10] was 0.759, the phosphorylation enrichment [11] was 0.375 and the phosphorylation enrichment [12] was 0.563. It also gave a phosphorylation enrichment [13] of 0.413, an SH2 binding enrichment [14] of 0.9 and an SH2 binding enrichment [15] of 0.845. The SH2 binding enrichment [16] was 0.438.
QAPPVYLDVLG [NTRK1_Y791] was tested, and the phosphorylation enrichment [1] was 1.17, the phosphorylation enrichment [2] was 4.2 and the phosphorylation enrichment [3] was 1.34. For the same sequence, the phosphorylation enrichment [4] was 2.33, the phosphorylation enrichment [5] was 1.49 and the phosphorylation enrichment [6] was 0.69. For the same sequence, the phosphorylation enrichment [7] was 1.45, the phosphorylation enrichment [8] was 1.01 and the phosphorylation enrichment [9] was 1.02. For the same sequence, the phosphorylation enrichment [10] was 1.16, the phosphorylation enrichment [11] was 0.901 and the phosphorylation enrichment [12] was 0.954. For the same sequence, the phosphorylation enrichment [13] was 0.727, the SH2 binding enrichment [14] was 1.03 and the SH2 binding enrichment [15] was 0.765. It also gave an SH2 binding enrichment [16] of 0.723.
